Assay results published in patent publication US9428586B2, “Heparanase splice variant” (COMPUGEN LTD, priority 2010, dated 2016).

Assays:
Binding to heparin beads = conditions: gel electrophoresis prior to or following incubation with heparin beads
Excerpt: (§1) FIG. 7. […] A. Cell lysates. […] B,C. Peptide analysis. […] C. Enzymatic activity.

heparanase = target: T1, heparanase (Homo sapiens, UniProt Q9Y251); experiment: Inhibition of purified active heparanase by peptides (35S-labeled ECM degradation); type: biochemical; conditions: peptide 50 μg/ml; purified active heparanase 40 ng
T1 construct: the 8 kDa portion and the 50 kDa portion form a heterodimer, which is enzymatically active
T1 sequence (Q9Y251 36-109 limits assumed): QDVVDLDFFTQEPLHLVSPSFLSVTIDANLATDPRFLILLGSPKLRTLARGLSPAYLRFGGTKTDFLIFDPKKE
T1 sequence (Q9Y251 158-543 limits assumed): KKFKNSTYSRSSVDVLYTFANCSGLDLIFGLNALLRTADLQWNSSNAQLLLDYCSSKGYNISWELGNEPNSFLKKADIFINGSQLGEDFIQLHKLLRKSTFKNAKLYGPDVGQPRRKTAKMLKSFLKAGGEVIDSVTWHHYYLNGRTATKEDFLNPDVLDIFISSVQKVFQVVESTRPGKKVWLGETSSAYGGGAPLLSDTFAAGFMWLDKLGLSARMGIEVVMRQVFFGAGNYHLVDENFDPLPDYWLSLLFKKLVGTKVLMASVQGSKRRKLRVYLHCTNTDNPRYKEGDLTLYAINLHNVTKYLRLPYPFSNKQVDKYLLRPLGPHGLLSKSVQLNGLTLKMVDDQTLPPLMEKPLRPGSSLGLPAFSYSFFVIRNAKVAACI
Protocol: as §1
(§2) Preparation of cell lysates, protein blotting, and measurement of heparanase enzymatic activity were carried out as described previously (Zetser, A., et al., 2006, Cancer Res 66, 1455-1463; Fux, L., et al., 2009, Cancer Res 69, 1758-1767).

Src [1] = experiment: Src phosphorylation (immunoblot, densitometry) in CAG myeloma cells; type: cell-based, human; conditions: serum-free
Protocol: (§3) FIG. 3. T5 augments Src phosphorylation. A. Over expression. CAG myeloma (left) and 293 (right) cells infected with heparanase (Hepa), T5, or control empty vector (Vo) were grown in the absence (−) or presence (+) of heparin (50 μg/ml) under serum-free conditions. Total cell lysates were subjected to immunoblotting applying anti-heparanase 1453 (upper and second panels), anti-phospho-Src (p-Src, third panels), anti-Src (fourth panels) anti-phospho-Erk (p-Erk, fifth panels), and anti-Erk2 (sixth panels) antibodies. Src phosphorylation index was calculated by densitometry analysis of phosphorylated Src levels divided by the total Src values. Data is presented as average fold increase ±SE of Src phosphorylation compared with control, Vo cells, set arbitrary to a value of 1 (lower panels) of five independent experiments. B. Gene silencing. Parental 293 cells were transfected with anti-heparanase, anti-T5, or control siRNAs. Total RNA was extracted and RT-PCR analysis was performed applying T5 (upper panel), heparanase (Hepa, second panel) and GAPDH (third panel) specific primers. Corresponding cell lysates were subjected to immunoblotting applying phospho-Src (p-Src, fourth panel), Src (fifth panel), phospho-Erk (p-Erk, sixth panel) and Erk2 (seventh panel) antibodies. Src phosphorylation index was calculated as above and is shown graphically in the lower panel. Note decreased Src phosphorylation levels upon T5 down regulation.
as §2

293 cells = experiment: T5 and heparanase levels in cell conditioned medium with heparin (immunoblot); type: cell-based, human; conditions: heparin 50 μg/ml, 20 h, serum-free
Excerpt: as §1

T5 = T5 protein bands in T5-transfected 293 cells treated with tunicamycin or chloroquine (immunoblot); type: cell-based, human; conditions: tunicamycin 10, 20 μg/ml
Excerpt: FIG. 2. Cloning and expression of T5. A. RT-PCR analysis. Total RNA was extracted from the indicated cell line and subjected to RT-PCR analysis applying T5 (upper panel), heparanase (second panel) and GAPDH (third panel) specific primers, specified in the ‘Materials and Methods’ section. B. T5 transfection. […] Control cells were transfected with an empty vector (Vo). Cell lysates (left) and cell conditioned medium (right) were blotted with anti-heparanase 1453 antibody. C. Cellular localization. Stably transfected 293 cells were triple stained for Myc-tag (T5; middle, red), the ER marker calnexin (ER, left, green), and merged with cell nuclei labeled with TO-PRO (right, blue). Cells were similarly stained with anti-Myc-tag (T5; middle, red), the Golgi marker wheat germ agglutinin-FITC (Golgi, left, green) and merged with cell nuclei labeled with TO-PRO (right, blue). […] D. Enzymatic activity. 293 cells transfected with heparanase (Hepa), T5 or control empty vector (Vo) were subjected to three freeze-thaw cycles and applied onto culture dishes coated with ^35S-labelled ECM. Release of sulfate-labeled material eluted in fractions 15-30 was evaluated as measure of heparanase activity, as described in ‘Materials and Methods’. […]

CAG myeloma cells [2] = experiment: CAG myeloma tumor xenograft development and immunohistochemistry; type: in vivo, athymic nude mice
Protocol: FIG. 5. T5 enhances tumor xenograft development. Control (Vo), heparanase-, and T5-infected CAG myeloma cells were injected subcutaneously (1×10^6/0.1 ml) and tumor volume was calculated (A). At the end of the experiment on day 37, tumors were resected, photographed (A, inset) and weighted (B). C. Immunohistochemical analysis. Paraffin-embedded 5 micron sections were stained with hematoxilin & eosin (left column), anti-CD31 (second left column), and anti-smooth muscle actin (SMA, two right columns) antibodies. Note increased blood vessels density and maturation (recruitment of SMA-positive cells) in xenografts produced by heparanase- and T5-infected cells. Cells from exponential cultures of control-, heparanase-, and T5-infected CAG myeloma cells were detached with trypsin/EDTA, washed with PBS and brought to a concentration of 1×10^7 cells/ml. Cell suspension (1×10 6/0.1 ml) was inoculated subcutaneously at the right flank of 5-weeks old female athymic nude mice (n=7). Xenograft size was determined twice a week by externally measuring tumors in two dimensions using a caliper. At the end of the experiment, mice were sacrificed and xenografts were removed, weighted and fixed in formalin. Paraffin-embedded 5 micron sections were subjected to immunostaining with anti-PECAM-1 (CD31) or anti-smooth muscle actin (1A4, Sigma) antibodies, using the Envision kit, according to the manufacturer's (Dako, Glostrup, Denmark) instructions, as described (Fux, L., et al., 2009, Cancer Res 69, 1758-1767). All animal experiments were approved by the Animal Care Committee of the Technion, Haifa, Israel.

Erk = Erk phosphorylation (immunoblot) in CAG myeloma and 293 cells; type: cell-based, human
Protocol: as §3, with “Note decreased Src phosphorylation levels upon T5 down regulation.” left out

[3] = system: CAG myeloma, FaDu pharynx carcinoma and 293 cells; experiment: Colony formation in soft agar; type: cell-based, human; conditions: over expression in CAG myeloma, FaDu and 293 cells
Protocol: (§4) FIG. 4. T5 augments cell proliferation. A. BrdU incorporation. Morphology of control (Con), heparanase (Hepa)- and T5-infected CAG myeloma cell cultures is shown in the upper panels. […] Sub-confluent cultures of control (Vo), heparanase (Hepa)- and T5-infected CAG cells were grown in serum-free medium for 20 h followed by incubation with BrdU (1:1000) for 2 h. Cells were then fixed and immunostained with anti BrdU monoclonal antibody. Positively stained, red-brown nuclei were counted vs. blue, hematoxilin counter-stained nuclei. At least 1000 cells were counted for each cell type and the percentage of positively stained cells is noted in each panel. Fold increase in BrdU incorporation is shown graphically on the right panel. Gene silencing. 293 cells were transfected with anti-GFP (si-GFP), anti-heparanase (si-Hepa) or anti-T5 siRNA oligonucleotides and BrdU incorporation was evaluated as above except that cells were kept in serum-containing medium (lower panels). Note 2-fold decrease in BrdU incorporation following heparanase or T5 gene silencing (lower right panel). B. Colony formation in soft agar. […]
Three ml of DMEM containing 0.5% low melt agarose (Bio-Rad, Hercules, Calif.) and 10% fetal calf serum was poured into 60 mm petri dishes. […] Colonies were visualized and counted under a microscope after 2-5 weeks, as described.

CAG myeloma cells [4] = experiment: Cell proliferation by BrdU incorporation, CAG myeloma cells; type: cell-based, human; conditions: infected CAG cells, serum-free 20 h, BrdU 2 h; control Vo 24±3%
Protocol: as §4
Cell proliferation was analyzed by BrdU incorporation using cell proliferation labeling reagent (1:1000, GE Healthcare), as described in Zetser, A., et al (2003 Cancer Res 63, 7733-7741). At least 1000 cells were counted for each cell type.

Src [5] = experiment: Src phosphorylation (immunoblot, densitometry) in 293 cells; type: cell-based, human; conditions: over expressing 293 cells, serum-free
Protocol: as §3, with “(-)” for “(−)”, “Data is presented as average fold increase ±SE of Src phosphorylation compared with control, Vo cells, set arbitrary to a value of 1 (lower panels) of five independent experiments.” left out, “regulation. […]” for “regulation.”

[6] = CAG xenografts, immunohistochemistry

**Q.** What does the source list for CKKFKNSTYSSKK [CKKK]?
**A.** interaction of peptide with heparin (Binding to heparin beads): failed to interact with heparin; inhibition of heparanase enzymatic activity (heparanase): failed to interact with heparin or to inhibit heparanase enzymatic activity

**Q.** Which “effect of heparin on Src phosphorylation enhanced by heparanase or T5” value (Src [1]; heparin 50 μg/ml, CAG myeloma and 293 cells) does the source give for heparin here?
**A.** not affected

**Q.** What about the “T5 levels in the cell culture medium upon addition of heparin” value (293 cells) of the same molecule?
**A.** not affected

**Q.** And the “heparanase levels in the cell culture medium upon addition of heparin” value (293 cells)?
**A.** markedly increased

**Q.** Which “amount of the ˜17 kDa T5 band” value (T5) does the source give for tunicamycin here?
**A.** markedly reduced

B1: heparanase: full length wild type human heparanase, endo-β-D-glucuronidase (protein)
chain: QDVVDLDFFTQEPLHLVSPSFLSVTIDANLATDPRFLILLGSPKLRTLARGLSPAYLRFGGTKTDFLIFDPKKESTFEERSYWQSQVNQDICKYGSIPPDVEEKLRLEWPYQEQLLLREHYQKKFKNSTYSRSSVDVLYTFANCSGLDLIFGLNALLRTADLQWNSSNAQLLLDYCSSKGYNISWELGNEPNSFLKKADIFINGSQLGEDFIQLHKLLRKSTFKNAKLYGPDVGQPRRKTAKMLKSFLKAGGEVIDSVTWHHYYLNGRTATKEDFLNPDVLDIFISSVQKVFQVVESTRPGKKVWLGETSSAYGGGAPLLSDTFAAGFMWLDKLGLSARMGIEVVMRQVFFGAGNYHLVDENFDPLPDYWLSLLFKKLVGTKVLMASVQGSKRRKLRVYLHCTNTDNPRYKEGDLTLYAINLHNVTKYLRLPYPFSNKQVDKYLLRPLGPHGLLSKSVQLNGLTLKMVDDQTLPPLMEKPLRPGSSLGLPAFSYSFFVIRNAKVAACI
**Q.** Which “Src phosphorylation increase vs control Vo cells” value (Src [1]; infected CAG myeloma cells) does the source give for B1 here?
**A.** ~3 fold

**Q.** And the “micro vessel density (CD31)” value (CAG myeloma cells [2]; [6])?
**A.** two-fold increase in vessel density

**Q.** What about the “pericytes associated with blood vessels (smooth muscle actin)” value (CAG myeloma cells [2]; [6]) of the same molecule?
**A.** significantly increased number of pericytes

**Q.** And the “average weight of xenografts” value (CAG myeloma cells [2]; day 37, subcutaneous infected CAG cells, control 58±11 mg)?
**A.** 648 ± 69 mg

**Q.** And the “development of tumor xenografts after day 21 vs control cells” value (CAG myeloma cells [2]; subcutaneous infected CAG cells)?
**A.** markedly enhanced

**Q.** And the “Erk phosphorylation upon over expression” value (Erk)?
**A.** not affected

**Q.** And the “colony number, size and cell density in soft agar” value [3]?
**A.** markedly increased

**Q.** And the “BrdU incorporation (positively stained cells)” value (CAG myeloma cells [4])?
**A.** 49±6%

**Q.** What about the “Src phosphorylation enhancement vs control Vo cells” value (Src [5]) of the same molecule?
**A.** ~4 fold
